{"source": "paper PMC10135725", "about": "“Vutiglabridin Modulates Paraoxonase 1 and Ameliorates Diet-Induced Obesity in Hyperlipidemic Mice” (Biomolecules, 2023)", "substrate": "CCCCSC1CCC(=O)O1", "assay": "purified protein", "assay_type": "biochemical, Homo sapiens", "details": "50 mM Tris-HCl pH 8, 1 mM CaCl2, RT, no OX-LA, no vutiglabridin"}
{"protein": "Recombinant PON1 (rePON1), carboxy-terminal hexahistidine tag (Homo sapiens) (protein, purified, C-terminal hexahistidine tag, expressed in CHO-K1 cells) AKLIALTLLGMGLALFRNHQSSYQTRLNALREVQPVELPNCNLVKGIETGSEDLEILPNGLAFISSGLKYPGIKSFNPNSPGKILLMDLNEEDPTVLELGITGSKFDVSSFNPHGISTFTDEDNAMYLLVVNHPDAKSTVELFKFQEEEKSLLHLKTIRHKLLPNLNDIVAVGPEHFYGTNDHYFLDPYLQSWEMYLGLAWSYVVYYSPSEVRVVAEGFDFANGINISPDGKYVYIAELLAHKIHVYEKHANWTLTPLKSLDFNTLVDNISVDPETGDLWVGCHPNGMKIFFYDSENPPASEVLRIQNILTEEPKVTQVYAENGTVLQGSTVASVYKGKLLIGTVFHKALYCEL", "values": [{"measurement": "Km", "result": 155.78, "unit": "µM"}, {"measurement": "Vmax", "result": 92.3, "unit": "µM/min"}]}
